B1: Dolichyl-diphosphooligosaccharide--protein glycosyltransferase subunit WBP1 (Saccharomyces cerevisiae), P33767 (parent)
chain: MRTDWNFFFCILLQAIFVVGTQTSRTLVLYDQSTEPLEEYSVYLKDLEQRNYKLEYLDINSTSTTVDLYDKEQRLFDNIIVFPTKGGKNLARQIPVKQLIKFFENEGNILCMSSPGAVPNTIRLFLNELGIYPSPKGHVIRDYFSPSSEELVVSSNHLLNKYVYNARKSEDFVFGESSAALLENREQIVPILNAPRTSFTESKGKCNSWTSGSQGFLVVGFQNLNNARLVWIGSSDFLKNKNQDSNQEFAKELLKWTFNEKSVIKSVHAVHSHADGTSYDEEPYKIKDKVIYSVGFSEWNGEEWLPHIADDIQFELRQVDPYYRLTLSPSGNDSETQYYTTGEFILPDRHGVFTFLTDYRKIGLSFTTDKDVKAIRHLANDEYPRSWEISNSWVYISAICGVIVAWIFFVVSFVTTSSVGKKLETFKKTN
partner: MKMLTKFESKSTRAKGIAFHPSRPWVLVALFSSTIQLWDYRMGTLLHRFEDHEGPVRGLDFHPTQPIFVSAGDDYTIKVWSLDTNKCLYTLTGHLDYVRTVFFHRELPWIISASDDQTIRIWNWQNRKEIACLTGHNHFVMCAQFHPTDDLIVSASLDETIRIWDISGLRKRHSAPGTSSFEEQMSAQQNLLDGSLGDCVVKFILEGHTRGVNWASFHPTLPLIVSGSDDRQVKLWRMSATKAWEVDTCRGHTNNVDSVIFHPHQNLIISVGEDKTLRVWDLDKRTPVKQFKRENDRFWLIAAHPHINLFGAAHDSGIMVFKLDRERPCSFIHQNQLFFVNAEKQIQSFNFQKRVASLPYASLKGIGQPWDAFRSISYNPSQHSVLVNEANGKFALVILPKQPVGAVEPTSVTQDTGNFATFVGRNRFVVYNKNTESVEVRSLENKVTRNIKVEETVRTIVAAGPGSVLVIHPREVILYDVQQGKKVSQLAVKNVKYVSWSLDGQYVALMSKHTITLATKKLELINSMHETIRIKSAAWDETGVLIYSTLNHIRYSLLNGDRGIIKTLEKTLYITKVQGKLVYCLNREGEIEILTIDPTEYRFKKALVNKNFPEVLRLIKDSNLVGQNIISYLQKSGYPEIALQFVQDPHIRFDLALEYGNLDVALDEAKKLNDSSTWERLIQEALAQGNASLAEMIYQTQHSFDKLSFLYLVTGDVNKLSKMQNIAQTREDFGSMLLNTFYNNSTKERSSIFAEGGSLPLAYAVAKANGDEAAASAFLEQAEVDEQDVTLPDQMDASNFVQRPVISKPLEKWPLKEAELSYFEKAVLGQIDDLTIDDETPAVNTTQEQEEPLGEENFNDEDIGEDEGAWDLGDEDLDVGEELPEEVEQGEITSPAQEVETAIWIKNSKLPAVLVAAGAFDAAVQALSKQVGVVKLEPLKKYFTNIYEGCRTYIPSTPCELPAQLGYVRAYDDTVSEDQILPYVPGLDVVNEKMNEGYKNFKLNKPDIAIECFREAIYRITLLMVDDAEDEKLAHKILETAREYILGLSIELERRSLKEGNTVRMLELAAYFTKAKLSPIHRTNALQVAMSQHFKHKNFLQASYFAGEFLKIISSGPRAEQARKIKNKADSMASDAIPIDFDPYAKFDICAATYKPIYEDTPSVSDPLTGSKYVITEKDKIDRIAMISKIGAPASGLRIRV
B2: Protein EMP47 (Saccharomyces cerevisiae), P43555 (parent)
chain: MMMLITMKSTVLLSVFTVLATWAGLLEAHPLGDTSDASKLSSDYSLPDLINARKVPNNWQTGEQASLEEGRIVLTSKQNSKGSLWLKQGFDLKDSFTMEWTFRSVGYSGQTDGGISFWFVQDSNVPRDKQLYNGPVNYDGLQLLVDNNGPLGPTLRGQLNDGQKPVDKTKIYDQSFASCLMGYQDSSVPSTIRVTYDLEDDNLLKVQVDNKVCFQTRKVRFPSGSYRIGVTAQNGAVNNNAESFEIFKMQFFNGVIEDSLIPNVNAMGQPKLITKYIDQQTGKEKLIEKTAFDADKDKITNYELYKKLDRVEGKILANDINALETKLNDVIKVQQELLSFMTTITKQLSSKPPANNEKGTSTDDAIAEDKENFKDFLSINQKLEKVLVEQEKYREATKRHGQDGPQVDEIARKLMIWLLPLIFIMLVMAYYTFRIRQEIIKTKLL
partner: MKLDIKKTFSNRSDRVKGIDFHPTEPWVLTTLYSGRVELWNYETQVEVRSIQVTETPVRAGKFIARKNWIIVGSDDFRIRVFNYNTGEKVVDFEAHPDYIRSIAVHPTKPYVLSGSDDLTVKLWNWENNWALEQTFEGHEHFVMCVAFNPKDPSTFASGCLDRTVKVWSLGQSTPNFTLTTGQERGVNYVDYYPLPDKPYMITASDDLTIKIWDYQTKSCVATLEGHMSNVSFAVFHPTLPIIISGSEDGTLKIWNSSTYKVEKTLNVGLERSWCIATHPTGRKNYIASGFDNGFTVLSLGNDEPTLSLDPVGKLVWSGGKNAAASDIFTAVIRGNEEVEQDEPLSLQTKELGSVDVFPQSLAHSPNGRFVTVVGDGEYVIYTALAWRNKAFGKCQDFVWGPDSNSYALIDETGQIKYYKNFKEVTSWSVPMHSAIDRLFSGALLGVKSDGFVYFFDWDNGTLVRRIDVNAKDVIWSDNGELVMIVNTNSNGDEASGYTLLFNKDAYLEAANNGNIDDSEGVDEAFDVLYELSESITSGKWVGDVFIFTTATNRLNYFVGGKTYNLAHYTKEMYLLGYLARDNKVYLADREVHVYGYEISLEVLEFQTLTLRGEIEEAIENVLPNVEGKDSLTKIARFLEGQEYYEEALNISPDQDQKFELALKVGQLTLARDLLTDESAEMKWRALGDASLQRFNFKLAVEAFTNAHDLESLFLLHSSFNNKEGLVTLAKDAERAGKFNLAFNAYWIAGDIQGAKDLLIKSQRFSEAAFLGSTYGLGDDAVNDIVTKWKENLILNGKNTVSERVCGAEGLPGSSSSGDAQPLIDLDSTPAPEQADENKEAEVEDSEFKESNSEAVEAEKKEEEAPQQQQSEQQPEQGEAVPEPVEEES

Variants of: B1
Settings: with copa_yeast COP1, P53622

| effect of a mutation on the interaction | Variant |
| --- | --- |
| decreasing interaction | K427A;K428A |

Variants of: B2
Settings: with copb2_yeast SEC27, P41811

| effect of a mutation on the interaction | Variant |
| --- | --- |
| decreasing interaction | K441S;K443S |

— IntAct's records for PubMed 14699056
